Key:
AncSZ = experiment: phosphorylation enrichment, bacterial display (enrichment ratio); higher = better substrate or ligand; peptides without Tyr show the background
EPHB1 = EPHB1 (UniProt P54762); experiment: as above
EPHB2 = EPHB2 (UniProt P29323); experiment: as above
FGFR1 = FGFR1 (UniProt P11362); experiment: as above
FGFR3 = FGFR3 (UniProt P22607); experiment: as above
Fer (mouse) = experiment: as above
Fes = Fes (UniProt P07332); experiment: as above
Fyn = Fyn (UniProt P06241); experiment: as above
Fyn, sequence (P06241 whole entry, looked up): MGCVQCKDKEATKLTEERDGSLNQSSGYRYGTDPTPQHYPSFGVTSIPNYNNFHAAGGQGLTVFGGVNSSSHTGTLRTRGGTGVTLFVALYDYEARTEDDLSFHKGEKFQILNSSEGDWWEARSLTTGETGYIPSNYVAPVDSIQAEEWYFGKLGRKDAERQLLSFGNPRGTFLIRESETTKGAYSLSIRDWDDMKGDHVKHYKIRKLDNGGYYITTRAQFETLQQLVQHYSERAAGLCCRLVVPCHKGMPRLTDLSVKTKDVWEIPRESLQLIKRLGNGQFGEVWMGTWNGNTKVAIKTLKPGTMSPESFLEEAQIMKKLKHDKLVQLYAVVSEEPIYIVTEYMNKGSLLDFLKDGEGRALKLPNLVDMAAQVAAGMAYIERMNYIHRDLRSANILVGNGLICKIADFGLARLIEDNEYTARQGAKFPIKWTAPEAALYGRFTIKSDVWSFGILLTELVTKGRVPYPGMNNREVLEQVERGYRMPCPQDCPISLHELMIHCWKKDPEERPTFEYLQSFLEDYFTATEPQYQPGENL

Hck = Hck (UniProt P08631); experiment: as above
Hck, sequence (P08631 whole entry, looked up): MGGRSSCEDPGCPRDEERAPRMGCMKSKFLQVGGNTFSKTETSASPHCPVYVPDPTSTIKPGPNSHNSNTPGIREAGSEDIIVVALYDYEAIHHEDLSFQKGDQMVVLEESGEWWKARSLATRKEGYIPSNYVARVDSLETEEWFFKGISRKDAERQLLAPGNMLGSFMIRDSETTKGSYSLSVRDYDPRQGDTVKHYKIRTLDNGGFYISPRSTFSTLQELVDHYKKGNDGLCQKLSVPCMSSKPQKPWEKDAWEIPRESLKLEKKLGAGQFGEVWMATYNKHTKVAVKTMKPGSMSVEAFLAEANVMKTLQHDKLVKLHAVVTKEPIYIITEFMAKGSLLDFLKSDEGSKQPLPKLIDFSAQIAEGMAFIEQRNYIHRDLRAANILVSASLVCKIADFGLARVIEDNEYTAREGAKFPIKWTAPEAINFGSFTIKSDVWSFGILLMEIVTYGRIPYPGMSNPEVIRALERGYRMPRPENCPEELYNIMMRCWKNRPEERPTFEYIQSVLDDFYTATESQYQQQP

Jak2 = Jak2 (UniProt O60674); experiment: as above
MERTK = MERTK (UniProt Q12866); experiment: as above
MERTK, sequence (Q12866 whole entry, looked up): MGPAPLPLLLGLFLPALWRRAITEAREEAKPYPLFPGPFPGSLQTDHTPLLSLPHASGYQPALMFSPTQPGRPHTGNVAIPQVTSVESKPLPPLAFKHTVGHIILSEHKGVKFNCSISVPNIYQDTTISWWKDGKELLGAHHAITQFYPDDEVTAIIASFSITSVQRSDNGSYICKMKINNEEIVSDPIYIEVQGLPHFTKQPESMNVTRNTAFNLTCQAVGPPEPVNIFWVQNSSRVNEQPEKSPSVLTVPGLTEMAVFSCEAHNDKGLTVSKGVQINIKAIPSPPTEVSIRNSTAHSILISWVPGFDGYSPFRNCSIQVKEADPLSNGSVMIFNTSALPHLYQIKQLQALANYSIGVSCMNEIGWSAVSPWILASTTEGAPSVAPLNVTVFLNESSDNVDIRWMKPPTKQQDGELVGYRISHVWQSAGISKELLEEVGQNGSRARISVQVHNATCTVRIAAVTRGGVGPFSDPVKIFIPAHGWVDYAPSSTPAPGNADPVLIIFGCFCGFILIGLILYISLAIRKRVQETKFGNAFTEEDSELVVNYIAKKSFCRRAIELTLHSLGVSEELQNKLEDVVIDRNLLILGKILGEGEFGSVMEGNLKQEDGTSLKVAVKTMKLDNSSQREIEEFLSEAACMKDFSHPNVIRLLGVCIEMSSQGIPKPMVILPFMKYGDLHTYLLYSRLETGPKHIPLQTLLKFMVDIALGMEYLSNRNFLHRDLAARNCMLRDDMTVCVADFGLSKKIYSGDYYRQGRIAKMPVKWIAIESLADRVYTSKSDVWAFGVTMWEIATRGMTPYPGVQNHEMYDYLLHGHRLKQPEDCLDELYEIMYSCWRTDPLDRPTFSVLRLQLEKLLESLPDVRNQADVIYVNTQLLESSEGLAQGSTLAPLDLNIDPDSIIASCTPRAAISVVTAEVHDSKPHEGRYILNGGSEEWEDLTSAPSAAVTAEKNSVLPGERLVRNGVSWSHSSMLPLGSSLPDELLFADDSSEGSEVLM

c-Abl (mouse) = experiment: as above
c-Src = experiment: as above
Grb2 SH2 = Grb2 SH2 (UniProt P62993); experiment: SH2 binding enrichment of the phosphorylated peptide, bacterial display (enrichment ratio); higher = better substrate or ligand; peptides without Tyr show the background
SHP2-C SH2 = experiment: as above
c-Src SH2 = experiment: as above
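Throughout, for SH2 binding enrichment of the phosphorylated peptide, bacterial display: peptide library displayed on the E. coli surface as eCPX fusions, selected cells deep-sequenced, score is each peptide's frequency after selection divided by its frequency in the input.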
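Throughout, for phosphorylation enrichment, bacterial display: 11-residue human phosphosite peptides and single-mutation variants displayed on the E. coli surface, counted by deep sequencing, each peptide's frequency after selection divided by its frequency in the unselected input library; frequency after pTyr selection over input frequency; kinase dosed for 20-30% of maximal phosphorylation in three min.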

FGFR1, sequence (P11362 whole entry, looked up): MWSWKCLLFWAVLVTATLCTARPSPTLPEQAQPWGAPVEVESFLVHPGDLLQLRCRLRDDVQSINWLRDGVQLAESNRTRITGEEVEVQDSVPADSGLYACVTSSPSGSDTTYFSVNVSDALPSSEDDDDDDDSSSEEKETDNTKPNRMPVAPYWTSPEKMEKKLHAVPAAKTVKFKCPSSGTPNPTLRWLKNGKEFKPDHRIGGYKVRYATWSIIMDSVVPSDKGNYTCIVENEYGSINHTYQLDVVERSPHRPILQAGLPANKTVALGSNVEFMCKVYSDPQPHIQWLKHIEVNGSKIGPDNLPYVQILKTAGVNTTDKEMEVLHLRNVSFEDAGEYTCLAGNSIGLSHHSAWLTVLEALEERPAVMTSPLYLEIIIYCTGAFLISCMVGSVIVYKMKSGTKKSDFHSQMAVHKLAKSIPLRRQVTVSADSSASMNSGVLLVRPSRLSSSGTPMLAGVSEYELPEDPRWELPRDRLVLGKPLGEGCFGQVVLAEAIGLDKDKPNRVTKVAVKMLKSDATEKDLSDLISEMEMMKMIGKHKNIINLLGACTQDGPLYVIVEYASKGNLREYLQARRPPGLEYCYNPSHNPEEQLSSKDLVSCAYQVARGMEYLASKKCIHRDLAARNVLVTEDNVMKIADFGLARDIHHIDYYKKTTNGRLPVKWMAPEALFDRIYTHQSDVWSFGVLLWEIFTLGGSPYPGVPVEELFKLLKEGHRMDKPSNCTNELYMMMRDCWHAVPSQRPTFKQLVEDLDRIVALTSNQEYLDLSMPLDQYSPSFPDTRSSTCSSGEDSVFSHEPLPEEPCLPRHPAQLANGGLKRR
Fes, sequence (P07332 whole entry, looked up): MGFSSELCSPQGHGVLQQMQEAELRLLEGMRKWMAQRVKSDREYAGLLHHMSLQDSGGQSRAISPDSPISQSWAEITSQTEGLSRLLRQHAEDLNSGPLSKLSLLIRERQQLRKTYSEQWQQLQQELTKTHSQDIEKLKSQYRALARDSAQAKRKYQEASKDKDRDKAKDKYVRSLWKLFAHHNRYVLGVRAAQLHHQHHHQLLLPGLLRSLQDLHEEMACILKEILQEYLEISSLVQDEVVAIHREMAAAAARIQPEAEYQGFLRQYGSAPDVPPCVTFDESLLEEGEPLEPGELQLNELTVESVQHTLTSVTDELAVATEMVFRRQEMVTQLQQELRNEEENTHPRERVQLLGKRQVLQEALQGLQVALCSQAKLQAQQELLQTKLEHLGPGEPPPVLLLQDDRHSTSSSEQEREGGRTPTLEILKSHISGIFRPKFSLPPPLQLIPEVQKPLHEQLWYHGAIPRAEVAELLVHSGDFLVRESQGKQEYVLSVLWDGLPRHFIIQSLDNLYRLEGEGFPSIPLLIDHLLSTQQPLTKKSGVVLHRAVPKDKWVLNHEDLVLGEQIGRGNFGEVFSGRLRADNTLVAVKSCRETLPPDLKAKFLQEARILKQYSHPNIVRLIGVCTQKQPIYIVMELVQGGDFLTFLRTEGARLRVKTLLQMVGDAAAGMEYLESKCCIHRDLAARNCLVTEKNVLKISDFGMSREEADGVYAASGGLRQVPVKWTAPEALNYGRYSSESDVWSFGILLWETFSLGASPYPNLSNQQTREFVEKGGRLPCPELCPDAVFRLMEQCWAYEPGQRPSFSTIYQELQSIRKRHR
FGFR3, sequence (P22607 whole entry, looked up): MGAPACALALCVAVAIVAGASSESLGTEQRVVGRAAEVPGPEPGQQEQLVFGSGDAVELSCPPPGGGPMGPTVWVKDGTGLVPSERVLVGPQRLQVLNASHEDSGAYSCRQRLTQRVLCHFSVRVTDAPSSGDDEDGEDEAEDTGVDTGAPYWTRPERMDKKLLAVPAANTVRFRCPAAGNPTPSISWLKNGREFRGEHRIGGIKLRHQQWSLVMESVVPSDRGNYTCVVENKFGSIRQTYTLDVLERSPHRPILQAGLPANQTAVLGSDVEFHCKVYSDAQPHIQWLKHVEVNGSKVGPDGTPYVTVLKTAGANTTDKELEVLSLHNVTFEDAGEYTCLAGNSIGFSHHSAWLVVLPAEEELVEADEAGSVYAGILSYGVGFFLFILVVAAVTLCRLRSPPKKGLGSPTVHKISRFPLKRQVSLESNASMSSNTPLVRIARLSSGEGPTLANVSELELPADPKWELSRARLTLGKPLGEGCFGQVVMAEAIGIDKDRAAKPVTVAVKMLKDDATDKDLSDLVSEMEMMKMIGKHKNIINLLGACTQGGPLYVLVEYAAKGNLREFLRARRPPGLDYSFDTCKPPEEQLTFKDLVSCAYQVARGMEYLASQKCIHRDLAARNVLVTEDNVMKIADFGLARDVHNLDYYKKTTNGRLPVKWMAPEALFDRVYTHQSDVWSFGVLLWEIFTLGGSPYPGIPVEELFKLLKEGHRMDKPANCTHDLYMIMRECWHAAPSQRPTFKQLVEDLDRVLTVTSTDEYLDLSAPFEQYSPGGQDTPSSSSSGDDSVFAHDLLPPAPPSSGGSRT

| Sequence | SH2 binding enrichment (Grb2 SH2) | SH2 binding enrichment (SHP2-C SH2) | SH2 binding enrichment (c-Src SH2) | phosphorylation enrichment (AncSZ) | phosphorylation enrichment (EPHB1) | phosphorylation enrichment (EPHB2) | phosphorylation enrichment (FGFR1) | phosphorylation enrichment (FGFR3) | phosphorylation enrichment (Fer (mouse)) | phosphorylation enrichment (Fes) | phosphorylation enrichment (Fyn) | phosphorylation enrichment (Hck) | phosphorylation enrichment (Jak2) | phosphorylation enrichment (MERTK) | phosphorylation enrichment (c-Abl (mouse)) | phosphorylation enrichment (c-Src) |
| --- | --- | --- | --- | --- | --- | --- | --- | --- | --- | --- | --- | --- | --- | --- | --- | --- |
| TTIVSYRASQP [MKI67_Y1737_K1734I] | 0.688 | 0.74 | 0.532 | 0.591 | 0.454 | 0.305 | 0.441 | 0.477 | 0.457 | 0.663 | 0.481 | 0.481 | 0.6 | 0.438 | 0.654 | 0.539 |
| NVTRKYSRQIL [MAP3K2_Y463_T464S] | 1.06 | 0.607 | 0.508 | 0.425 | 0.356 | 0.317 | 0.363 | 0.352 | 0.402 | 0.446 | 0.491 | 0.361 | 0.417 | 0.344 | 0.399 | 0.403 |
| METKGYHSLPE [NR3C2_Y6] | 0.786 | 0.475 | 0.769 | 0.696 | 0.48 | 0.367 | 0.434 | 0.563 | 0.399 | 1.01 | 0.287 | 0.377 | 0.804 | 0.515 | 0.704 | 0.446 |
| DRPASYLEKVR [KRT13_Y118_L115P] | 1.08 | 1.03 | 0.579 | 0.438 | 0.307 | 0.247 | 0.3 | 0.404 | 0.276 | 0.605 | 0.299 | 0.284 | 0.43 | 0.342 | 0.441 | 0.362 |
| NNPAFYVLEGV [INPPL1_Y987_YF] | 0.768 | 0.693 | 0.682 | 0.956 | 0.5 | 0.581 | 0.653 | 0.612 | 0.42 | 1 | 0.699 | 0.485 | 0.87 | 0.554 | 0.616 | 0.638 |
| INITIYGKTFH [EFHC1_Y177_R182H] | 1.15 | 0.781 | 0.47 | 1.11 | 0.546 | 0.513 | 0.429 | 0.817 | 0.579 | 1.44 | 0.519 | 0.544 | 1.08 | 0.473 | 0.958 | 0.468 |
| QSKGIYYVQLE [MGAT4B_Y262] | 0.724 | 1.71 | 1.35 | 1.21 | 1.12 | 0.872 | 3.51 | 3 | 0.763 | 1.42 | 2.5 | 2.22 | 1.47 | 8.64 | 1.1 | 3.33 |
| LQLLGDRPVFS [CHST6_Y358_Y358D_YF] | 0.749 | 0.762 | 0.532 | 0.628 | 0.521 | 0.487 | 0.448 | 0.542 | 0.378 | 0.795 | 0.356 | 0.41 | 0.633 | 0.388 | 0.673 | 0.377 |
| GEVLVYAEDPA [FLNA_Y319_V320A] | 0.874 | 1 | 0.549 | 1.21 | 0.607 | 0.53 | 0.496 | 0.704 | 0.385 | 1.05 | 0.593 | 0.543 | 0.814 | 0.408 | 0.496 | 0.553 |

Continued, in another order:

| SH2 binding enrichment (Grb2 SH2) | SH2 binding enrichment (SHP2-C SH2) | SH2 binding enrichment (c-Src SH2) | Sequence | phosphorylation enrichment (AncSZ) | phosphorylation enrichment (EPHB1) | phosphorylation enrichment (EPHB2) | phosphorylation enrichment (FGFR1) | phosphorylation enrichment (FGFR3) | phosphorylation enrichment (Fer (mouse)) | phosphorylation enrichment (Fes) | phosphorylation enrichment (Fyn) | phosphorylation enrichment (Hck) | phosphorylation enrichment (Jak2) | phosphorylation enrichment (MERTK) | phosphorylation enrichment (c-Abl (mouse)) | phosphorylation enrichment (c-Src) |
| --- | --- | --- | --- | --- | --- | --- | --- | --- | --- | --- | --- | --- | --- | --- | --- | --- |
| 1.11 | 0.674 | 10.3 | FCGFSYDDIPD [TMEM230_Y112_R108C_YF] | 1.46 | 0.694 | 0.707 | 0.592 | 0.918 | 0.76 | 1.27 | 0.481 | 0.63 | 1.22 | 0.558 | 1.02 | 0.537 |
| 2.05 | 1.93 | 1.38 | FLLTVYSIFSK [SGCE_Y38] | 1.15 | 0.643 | 0.589 | 0.496 | 0.647 | 0.594 | 1.05 | 2.59 | 2.3 | 1.1 | 1.17 | 0.899 | 3.17 |
| 0.632 | 0.86 | 0.923 | AIGFEYSEINI [SIGLEC12_Y588_YF] | 1.14 | 0.481 | 0.5 | 2.77 | 1.69 | 3.84 | 1.04 | 0.642 | 1.14 | 1.22 | 0.574 | 0.689 | 1.46 |
| 0.98 | 0.589 | 0.811 | WEQELYSQLVY [WAS_Y102] | 2.3 | 11.8 | 16 | 8.38 | 7.23 | 15.7 | 2.69 | 9.39 | 8.84 | 1.35 | 9.2 | 1.55 | 7.33 |
| 0.708 | 0.861 | 0.448 | LESTLYESSVV [TRPV4_Y91] | 1.94 | 1.41 | 1.35 | 1.31 | 1.47 | 9.02 | 2.34 | 1.26 | 1.6 | 2.15 | 1.21 | 1.45 | 1.83 |

— the supplement of paper PMC10065799, “High-throughput profiling of sequence recognition by tyrosine kinases and SH2 domains using bacterial peptide display” (eLife, 2023)
